Source: patent US20260242478A1 (published 2026)

Legend:
[1] = molecular target: T1, Anti-CD28 Fab (SEQ ID NOs: 696, 697); experiment: phage binding ELISA; clonal phage on plate-captured biotinylated anti-CD28 Fab, anti-M13 HRP detection
T1 construct: In the phage ELISA the Fab was biotinylated and captured on neutravidin coated plates
T1 sequence (VH, as listed by the source, chain 1 of 2): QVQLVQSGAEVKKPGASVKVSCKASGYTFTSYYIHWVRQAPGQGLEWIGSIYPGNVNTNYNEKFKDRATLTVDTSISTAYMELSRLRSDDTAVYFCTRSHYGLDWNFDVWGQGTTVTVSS
T1 sequence (VL, as listed by the source, chain 2 of 2): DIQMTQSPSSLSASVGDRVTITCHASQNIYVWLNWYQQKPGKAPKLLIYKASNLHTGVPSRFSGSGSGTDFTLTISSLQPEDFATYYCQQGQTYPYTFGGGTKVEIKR
Procedure: (§1) Clonal phage were harvested as crude supematants and screened via standard ELISAs. […] Prior to the addition of clonal phage, wells were incubated with blocking buffer and CD28 antigen or blocking buffer alone. Without washing or aspirating, clonal phage supematants were then added to the wells and incubated for a short time. Wells were then washed followed by detection of bound phage using a horse radish conjugated anti-M13 antibody.

[2] = molecular target: T1, Anti-CD28 Fab (SEQ ID NOs: 696, 697); experiment: phage binding ELISA on plate-captured anti-CD28 Fab pre-incubated with CD28 antigen (competitor: CD28)
Procedure: as §1

[3] = molecular target: T2, Anti-CD28 Fab (SEQ ID NOs: 696, 697); experiment: phage binding ELISA; biotinylated anti-CD28 Fab on neutravidin plate, clonal phage detected with anti-M13-HRP;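 further: crude clonal phage supernatants added briefly to wells preincubated in blocking buffer with or without CD28 antigen, then washed before detection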
T2 construct: Biotinylated and captured on neutravidin coated plates in the phage ELISA
T2 sequence (VH, as listed by the source, chain 1 of 2): as the sequence (VH, as listed by the source, chain 1 of 2) above
T2 sequence (VL, as listed by the source, chain 2 of 2): as the sequence (VL, as listed by the source, chain 2 of 2) above
Procedure: (§2) Clonal phage were harvested as crude supematants and screened via standard ELISAs. […] Prior to the addition of clonal phage, wells were incubated with blocking buffer and CD28 antigen or blocking buffer alone. Without washing or aspirating, clonal phage supematants were then added to the wells and incubated for a short time. Wells were then washed followed by detection of bound phage using a horse radish conjugated anti-M13 antibody. Clonal phage of interest were then sent for sequence analysis.

[4] = molecular target: T2, Anti-CD28 Fab (SEQ ID NOs: 696, 697); experiment: phage binding ELISA on captured anti-CD28 Fab; competitor: CD28 antigen pre-incubated in the well;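 further: clonal phage supernatants added briefly to wells preblocked with or without CD28, bound phage detected through an HRP-linked anti-M13 antibody, wells with blocking buffer alone as comparison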
Procedure: as §2

[5] = molecular target: Anti-CD28 Fab (SEQ ID NOs: 696, 697); experiment: phage binding ELISA; biotinylated Fab on neutravidin plate, bound phage detected with anti-M13-HRP
Target sequence in this assay (VH, as listed by the source, chain 1 of 2): as the sequence (VH, as listed by the source, chain 1 of 2) above
Target sequence in this assay (VL, as listed by the source, chain 2 of 2): as the sequence (VL, as listed by the source, chain 2 of 2) above
Procedure: as §1

[6] = molecular target: Anti-CD28 Fab (SEQ ID NOs: 696, 697); experiment: phage binding ELISA; Fab-coated wells pre-incubated with CD28 antigen as competitor;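 further: clonal phage supernatants added to wells preincubated with CD28 antigen or blocking buffer only, bound phage detected with HRP-conjugated anti-M13 antibody, buffer-only wells as control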
Target sequence in this assay (VH, as listed by the source, chain 1 of 2): as the sequence (VH, as listed by the source, chain 1 of 2) above
Target sequence in this assay (VL, as listed by the source, chain 2 of 2): as the sequence (VL, as listed by the source, chain 2 of 2) above
Procedure: as §1

Binder	Anti-CD28 Fab (SEQ ID NOs: 696, 697) signal [1]	Anti-CD28 Fab signal in the presence of CD28 [2]	Anti-CD28 Fab signal (phage binding ELISA) [3]	Anti-CD28 Fab signal in the presence of CD28 (phage binding ELISA) [4]	also measured
LCAAGAAYPWPMCL [Phage-1520 (Peptide-92 library sequence, SEQ ID NO: 1816)]	1.59	0.06			
TCSAGATYKWPVCL (tested as crude phage supernatant) [Phage-1559]			1.47	0.06	
TCTAVFPYEWPRCL [Phage-1525 (Peptide-92 library sequence, SEQ ID NO: 1821)]	1.57	0.07			
TCAAGASWEWPACL (tested as crude phage supernatant) [Phage-1556]			1.48	0.08	
TCAAGAMYQWPECF (tested as crude phage supernatant) [Phage-1557]			1.48	0.06	
ICAAGFIWSWPACF (tested as crude phage supernatant) [Phage-1548]			1.51	0.08	
SCAAGAHYKWPVCI (tested as crude phage supernatant) [Phage-1547]			1.51	0.06	
SCAAGATYEWPICL [Phage-1521 (Peptide-92 library sequence, SEQ ID NO: 1817)]	1.59	0.05			
TCAAGATWLWPVCL [Phage-1593]					Anti-CD28 Fab signal [5]: 1.39; Anti-CD28 Fab signal in the presence of CD28 [6]: 0.08
SCAAGATYGWPECF [Phage-1597]					Anti-CD28 Fab signal [5]: 1.36; Anti-CD28 Fab signal in the presence of CD28 [6]: 0.07
TCSAGAEYTWPLCF [Phage-1591]					Anti-CD28 Fab signal [5]: 1.4; Anti-CD28 Fab signal in the presence of CD28 [6]: 0.08
LCSAGAMWEWPLCL [Phage-1599]					Anti-CD28 Fab signal [5]: 1.36; Anti-CD28 Fab signal in the presence of CD28 [6]: 0.07
NCSAGATWPWPMCF (tested as crude phage supernatant) [Phage-1553]			1.49	0.1	
TCAAGAMWTWPECL [Phage-1528 (Peptide-92 library sequence, SEQ ID NO: 1824)]	1.57	0.07			
SCAAGATFHWPMCF [Phage-1526 (Peptide-92 library sequence, SEQ ID NO: 1822)]	1.57	0.09			
SCAAGATWAWPACL [Phage-1598]					Anti-CD28 Fab signal [5]: 1.36; Anti-CD28 Fab signal in the presence of CD28 [6]: 0.06
PCAAGAMWAWPYCL (tested as crude phage supernatant) [Phage-1552]			1.49	0.05	
SCAAGAMWPWPVCV [Phage-1522 (Peptide-92 library sequence, SEQ ID NO: 1818)]	1.59	0.07			
SCSAGATYEWPYCF (tested as crude phage supernatant) [Phage-1560]			1.47	0.06	

Binder	Anti-CD28 Fab (SEQ ID NOs: 696, 697) signal [1]	Anti-CD28 Fab signal in the presence of CD28 [2]	Anti-CD28 Fab signal (phage binding ELISA) [3]	Anti-CD28 Fab signal in the presence of CD28 (phage binding ELISA) [4]	also measured
TCAAGVHFGWPLCF (tested as crude phage supernatant) [Phage-1554]			1.49	0.07	
TCAAGATYPWPECM [Phage-1529 (Peptide-92 library sequence, SEQ ID NO: 1825)]	1.57	0.06			
TCAAGATYSWPDCF (tested as crude phage supernatant) [Phage-1549]			1.51	0.06	
WCAAGASYPWPWCL [Phage-1524 (Peptide-92 library sequence, SEQ ID NO: 1820)]	1.58	0.05			
TCSAGANWVWPLCL [Phage-1595]					Anti-CD28 Fab signal [5]: 1.38; Anti-CD28 Fab signal in the presence of CD28 [6]: 0.07
TCAAGAHYTWPTCL (tested as crude phage supernatant) [Phage-1558]			1.47	0.07	
SCAAGAQYGWPMCL [Phage-1523 (Peptide-92 library sequence, SEQ ID NO: 1819)]	1.59	0.05			
SCAAGAPYPWPECL [Phage-1518 (Peptide-92 library sequence, SEQ ID NO: 1814)]	1.59	0.07			
MCTAGATYPWPACL [Phage-1531 (Peptide-92 library sequence, SEQ ID NO: 1827)]	1.56	0.07			
TCAAGATYTWPTCF (tested as crude phage supernatant) [Phage-1555]			1.48	0.05	
LCAAGFNYPWPLCL [Phage-1530 (Peptide-92 library sequence, SEQ ID NO: 1826)]	1.57	0.05			
SCSAFFHFHWPACL [Phage-1594]					Anti-CD28 Fab signal [5]: 1.38; Anti-CD28 Fab signal in the presence of CD28 [6]: 0.06
TCSAGAHWVWPYCL [Phage-1596]					Anti-CD28 Fab signal [5]: 1.37; Anti-CD28 Fab signal in the presence of CD28 [6]: 0.09
TCAAGAHYLWPHCL (tested as crude phage supernatant) [Phage-1551]			1.5	0.12	
SCAAGAAWGWPACF [Phage-1592]					Anti-CD28 Fab signal [5]: 1.39; Anti-CD28 Fab signal in the presence of CD28 [6]: 0.09
TCSAGAAYAWPYCL [Phage-1519 (Peptide-92 library sequence, SEQ ID NO: 1815)]	1.59	0.07			
TCSAGAGYPWPTCL [Phage-1600]					Anti-CD28 Fab signal [5]: 1.36; Anti-CD28 Fab signal in the presence of CD28 [6]: 0.06
QCAAGAMWTWPVCF (tested as crude phage supernatant) [Phage-1550]			1.5	0.07	
TCSAGFSYKWPWCL [Phage-1527 (Peptide-92 library sequence, SEQ ID NO: 1823)]	1.57	0.06			
